Laboratory results from the RNAGym collection of RNA variant scans (doi:10.7554/elife.90254).

B1: LINE1-full (parent)
chain: UACGUAGGUGGUUUUCCCCUGAUAGUGCUAAGGGGGCCUGGAAGUUUGGACUGGGCAGAGCUCAACACAGCGUGGCAAAGUGGCUGUGGCUAGACUGCCUCUCUGGAUUCCUCGUCACUCAGCAGGGCAUCUCUGAGAGAAAUGCC

Variants of: B1
Assay: self-cleavage, relative activity (ratio to wild type); higher = more cleavage; in vitro, sequencing; the parent is a self-cleaving ribozyme

| Variant | self-cleavage |
| --- | --- |
| UACGUAGGUGGUUUUCCCCUGAUGGUGCUAAGGGGGCCUGGAAGUUAGGACUGGGCAGAGCUCAACACAGCGUGGCAAAGUGGCUGUGGCUAGACUGCCUCUCUGGAUUCCUCGUCACUCAGCAGGGCAUCUCUGAGAGAAAUGCC [A24G U47A] | 1.44 |
| UACGUAGGUGGUUUUCCCCUGAUGGUGCUAAGGGGGCCUGGAAGUUUGGACCGGGCAGAGCUCAACACAGCGUGGCAAAGUGGCUGUGGCUAGACUGCCUCUCUGGAUUCCUCGUCACUCAGCAGGGCAUCUCUGAGAGAAAUGCC [A24G U52C] | 0.12 |
| UACGUAGGUGGUUUUCCCCUGAUGGUGCUAAGGGGGCCUGGAAGUUUGGACUGGGCAGAGCUCAACACAGCGUGGCAAAGUGGCCGUGGCUAGACUGCCUCUCUGGAUUCCUCGUCACUCAGCAGGGCAUCUCUGAGAGAAAUGCC [A24G U85C] | 0 |
| UACGUAGGUGGUUUUCCCCUGAUGGUGCUAAGGGGGCCUGGAAGUUUGGACUGGGCAGAGCUCAACACAGCGUGGCAAAGUGGCUGAGGCUAGACUGCCUCUCUGGAUUCCUCGUCACUCAGCAGGGCAUCUCUGAGAGAAAUGCC [A24G U87A] | 0.03 |
| UACGUAGGUGGUUUUCCCCUGAUGGUGCUAAGGGGGCCUGGAAGUUUGGACUGGGCAGAGCUCAACACAGCGUGGCAAAGUGGCUGUGGCUAGACAGCCUCUCUGGAUUCCUCGUCACUCAGCAGGGCAUCUCUGAGAGAAAUGCC [A24G U96A] | 0.11 |
| UACGUAGGUGGUUUUCCCCUGAUGGUGCUAAGGGGGCCUGGAAGUUUGGACUGGGCAGAGCUCAACACAGCGUGGCAAAGUGGCUGUGGCUAGACCGCCUCUCUGGAUUCCUCGUCACUCAGCAGGGCAUCUCUGAGAGAAAUGCC [A24G U96C] | 0.31 |
| UACGUAGGUGGUUUUCCCCUGAUGGUGCUAAGGGGGCCUGGAAGUUUGGACUGGGCAGAGCUCAACACAGCGUGGCAAAGUGGCUGUGGCUAGACGGCCUCUCUGGAUUCCUCGUCACUCAGCAGGGCAUCUCUGAGAGAAAUGCC [A24G U96G] | 0 |
| UACGUAGGUGGUUUUCCCCUGAUGGUGCUAAGGGGGCCUGGAAGUUUGGACUGGGCAGAGCUCAACACAGCGUGGCAAAGUGGCUGUGGCUAGACUGCCUCUCUGGAUACCUCGUCACUCAGCAGGGCAUCUCUGAGAGAAAUGCC [A24G U109A] | 2.43 |
| UACGUAGGUGGUUUUCCCCUGAUGGUGCUAAGGGGGCCUGGAAGUUUGGACUGGGCAGAGCUCAACACAGCGUGGCAAAGUGGCUGUGGCUAGACUGCCUCUCUGGAUUCCUCGUCACUCAGCAGGGCAUCACUGAGAGAAAUGCC [A24G U132A] | 1.12 |
| UACGUAGGUGGUUUUCCCCUGAUGGUGCUAAGGGGGCCUGGAAGUUUGGACUGGGCAGAGCUCAACACAGCGUGGCAAAGUGGCUGUGGCUAGACUGCCUCUCUGGAUUCCUCGUCACUCAGCAGGGCAUCCCUGAGAGAAAUGCC [A24G U132C] | 1.17 |
| UACGUAGGUGGUUUUCCCCUGAUGGUGCUAAGGGGGCCUGGAAGUUUGGACUGGGCAGAGCUCAACACAGCGUGGCAAAGUGGCUGUGGCUAGACUGCCUCUCUGGAUUCCUCGUCACUCAGCAGGGCAUCUCAGAGAGAAAUGCC [A24G U134A] | 0.99 |
| UACGUAGGUGGUUUUCCCCUGAUGGUGCUAAGGGGGCCUGGAAGUUUGGACUGGGCAGAGCUCAACACAGCGUGGCAAAGUGGCUGUGGCUAGACUGCCUCUCUGGAUUCCUCGUCACUCAGCAGGGCAUCUCCGAGAGAAAUGCC [A24G U134C] | 1.26 |
| UACGUAGGUGGUUUUCCCCUGAUGGUGCUAAGGGGGCCUGGAAGUUUGGACUGGGCAGAGCUCAACACAGCGUGGCAAAGUGGCUGUGGCUAGACUGCCUCUCUGGAUUCCUCGUCACUCAGCAGGGCAUCUCUGAGAGAAAAGCC [A24G U143A] | 0.72 |
| UACGUAGGUGGUUUUCCCCUGAUUGUGCUAAGGGGGCCUGGAGGUUUGGACUGGGCAGAGCUCAACACAGCGUGGCAAAGUGGCUGUGGCUAGACUGCCUCUCUGGAUUCCUCGUCACUCAGCAGGGCAUCUCUGAGAGAAAUGCC [A24U A43G] | 1.33 |
| UACGUAGGUGGUUUUCCCCUGAUUGUGCUAAGGGGGCCUGGAAGUUUGGACUGGGCGGAGCUCAACACAGCGUGGCAAAGUGGCUGUGGCUAGACUGCCUCUCUGGAUUCCUCGUCACUCAGCAGGGCAUCUCUGAGAGAAAUGCC [A24U A57G] | 0.56 |
| UACGUAGGUGGUUUUCCCCUGAUUGUGCUAAGGGGGCCUGGAAGUUUGGACUGGGCAGAGCUCAACGCAGCGUGGCAAAGUGGCUGUGGCUAGACUGCCUCUCUGGAUUCCUCGUCACUCAGCAGGGCAUCUCUGAGAGAAAUGCC [A24U A67G] | 0.43 |
| UACGUAGGUGGUUUUCCCCUGAUUGUGCUAAGGGGGCCUGGAAGUUUGGACUGGGCAGAGCUCAACACAGCGUGGCAAGGUGGCUGUGGCUAGACUGCCUCUCUGGAUUCCUCGUCACUCAGCAGGGCAUCUCUGAGAGAAAUGCC [A24U A79G] | 0.97 |
| UACGUAGGUGGUUUUCCCCUGAUUGUGCUAAGGGGGCCUGGAAGUUUGGACUGGGCAGAGCUCAACACAGCGUGGCAAAGUGGCUGUGGCUUGACUGCCUCUCUGGAUUCCUCGUCACUCAGCAGGGCAUCUCUGAGAGAAAUGCC [A24U A92U] | 0.7 |
| UACGUAGGUGGUUUUCCCCUGAUUGUGCUAAGGGGGCCUGGAAGUUUGGACUGGGCAGAGCUCAACACAGCGUGGCAAAGUGGCUGUGGCUAGGCUGCCUCUCUGGAUUCCUCGUCACUCAGCAGGGCAUCUCUGAGAGAAAUGCC [A24U A94G] | 0.47 |
| UACGUAGGUGGUUUUCCCCUGAUUGUGCUAAGGGGGCCUGGAAGUUUGGACUGGGCAGAGCUCAACACAGCGUGGCAAAGUGGCUGUGGCUAGACUGCCUCUCUGGAUUCCUCGUCCCUCAGCAGGGCAUCUCUGAGAGAAAUGCC [A24U A117C] | 1.6 |

| Variant | self-cleavage |
| --- | --- |
| UACGUAGGUGGUUUUCCCCUGAUUGUGCUAAGGGGGCCUGGAAGUUUGGACUGGGCAGAGCUCAACACAGCGUGGCAAAGUGGCUGUGGCUAGACUGCCUCUCUGGAUUCCUCGUCACUCGGCAGGGCAUCUCUGAGAGAAAUGCC [A24U A121G] | 1.08 |
| UACGUAGGUGGUUUUCCCCUGAUUGUGCUAAGGGGGCCUGGAAGUUUGGACUGGGCAGAGCUCAACACAGCGUGGCAAAGUGGCUGUGGCUAGACUGCCUCUCUGGAUUCCUCGUCACUCAGCAGGGCUUCUCUGAGAGAAAUGCC [A24U A129U] | 1.26 |
| UACGUAGGUGGUUUUCCCCUGAUUGUGCUAAGGGGGCCUGGAAGUUUGGACUGGGCAGAGCUCAACACAGCGUGGCAAAGUGGCUGUGGCUAGACUGCCUCUCUGGAUUCCUCGUCACUCAGCAGGGCAUCUCUGAGGGAAAUGCC [A24U A138G] | 0.94 |
| UACGUAGGUGGUUUUCCCCUGAUUGUGCUAAGGGGGCCUGGAAGUUUGGACUGGGCAGAGCUCAACACAGCGUGGCAAAGUGGCUGUGGCUAGACUGCCUCUCUGGAUUCCUCGUCACUCAGCAGGGCAUCUCUGAGAGUAAUGCC [A24U A140U] | 2 |
| UACGUAGGUGGUUUUCCCCUGAUUGUGCUAAGGGGGCCUGGAAGUUUGGACUGGGCAGAGCUCAACACAGCGUGGCAAAGUGGCUGUGGCUAGACUGCCUCUCUGGAUUCCUCGUCACUCAGCAGGGCAUCUCUGAGAGAACUGCC [A24U A142C] | 1.54 |
| UACGUAGGUGGUUUUCCCCUGAUUGUGCUAAGGGGGCCUGGAAGUUUGGACUGGGCAGAGCUCAACACAGCGUGGCAAAGUGGCUGUGGCUAGACUGCCUCUCUGGAUUCCUCGUCACUCAGCAGGGCAUCUCUGAGAGAAGUGCC [A24U A142G] | 1.29 |
| UACGUAGGUGGUUUUCCCCUGAUUGUGCUAAGGGGGCCUGGAAGUUUGGACUGGGCAGAGCUCAACACAGCGUGGCAAAGUGGCUGUGGCUAGACUGCCUCUCUGGAUUACUCGUCACUCAGCAGGGCAUCUCUGAGAGAAAUGCC [A24U C110A] | 1.1 |
| UACGUAGGUGGUUUUCCCCUGAUUGUGCUAAGGGGGCCUGGAAGUUUGGACUGGGCAGAGCUCAACACAGCGUGGCAAAGUGGCUGUGGCUAGACUGCCUCUCUGGAUUCCUCGUCACUCAGCAGGGCAUCUCUGAGAGAAAUGUC [A24U C145U] | 1.4 |
| UACGUAGGUGGUUUUCCCCUGAUUGUGCUAAGAGGGCCUGGAAGUUUGGACUGGGCAGAGCUCAACACAGCGUGGCAAAGUGGCUGUGGCUAGACUGCCUCUCUGGAUUCCUCGUCACUCAGCAGGGCAUCUCUGAGAGAAAUGCC [A24U G33A] | 1.07 |
| UACGUAGGUGGUUUUCCCCUGAUUGUGCUAAGGGGGCCUAGAAGUUUGGACUGGGCAGAGCUCAACACAGCGUGGCAAAGUGGCUGUGGCUAGACUGCCUCUCUGGAUUCCUCGUCACUCAGCAGGGCAUCUCUGAGAGAAAUGCC [A24U G40A] | 0.71 |
| UACGUAGGUGGUUUUCCCCUGAUUGUGCUAAGGGGGCCUGGAAGUUUGGACUGGGCAGAGCUCAACACAGCGUGGCAAAGUGACUGUGGCUAGACUGCCUCUCUGGAUUCCUCGUCACUCAGCAGGGCAUCUCUGAGAGAAAUGCC [A24U G83A] | 1.07 |
| UACGUAGGUGGUUUUCCCCUGAUUGUGCUAAGGGGGCCUGGAAGUUUGGACUGGGCAGAGCUCAACACAGCGUGGCAAAGUGGCUGUGGCUAAACUGCCUCUCUGGAUUCCUCGUCACUCAGCAGGGCAUCUCUGAGAGAAAUGCC [A24U G93A] | 0.06 |
| UACGUAGGUGGUUUUCCCCUGAUUGUGCUAAGGGGGCCUGGAAGUUUGGACUGGGCAGAGCUCAACACAGCGUGGCAAAGUGGCUGUGGCUAGACUGCCUCUCUGAAUUCCUCGUCACUCAGCAGGGCAUCUCUGAGAGAAAUGCC [A24U G106A] | 1.51 |
| UACGUAGGUGGUUUUCCCCUGAUUGUGCUAAGGGGGCCUGGAAGUUUGGACUGGGCAGAGCUCAACACAGCGUGGCAAAGUGGCUGUGGCUAGACUGCCUCUCUGGAUUCCUCGUCACUCAUCAGGGCAUCUCUGAGAGAAAUGCC [A24U G122U] | 1.33 |
| UACGUAGGUGGUUUUCCCCUGAUUGUGCUAAGGGGGCCUGGAAGUUUGGACUGGGCAGAGCUCAACACAGCGUGGCAAAGUGGCUGUGGCUAGACUGCCUCUCUGGAUUCCUCGUCACUCAGCAGAGCAUCUCUGAGAGAAAUGCC [A24U G126A] | 1.34 |
| UACGUAGGUGGUUUUCCCCUGAUUGUGCUAAGGGGGCCUGGAAGUUUGGACUGGGCAGAGCUCAACACAGCGUGGCAAAGUGGCUGUGGCUAGACUGCCUCUCUGGAUUCCUCGUCACUCAGCAGUGCAUCUCUGAGAGAAAUGCC [A24U G126U] | 1.22 |
| UACGUAGGUGGUUUUCCCCUGAUUGUGCUAAGGGGGCCUGGAAGUUUGGACUGGGCAGAGCUCAACACAGCGUGGCAAAGUGGCUGUGGCUAGACUGCCUCUCUGGAUUCCUCGUCACUCAGCAGGGCAUCUCUGAUAGAAAUGCC [A24U G137U] | 2.12 |
| UACGUAGGUGGUUUUCCCCUGAUUGCGCUAAGGGGGCCUGGAAGUUUGGACUGGGCAGAGCUCAACACAGCGUGGCAAAGUGGCUGUGGCUAGACUGCCUCUCUGGAUUCCUCGUCACUCAGCAGGGCAUCUCUGAGAGAAAUGCC [A24U U26C] | 0.97 |
| UACGUAGGUGGUUUUCCCCUGAUUGUGCAAAGGGGGCCUGGAAGUUUGGACUGGGCAGAGCUCAACACAGCGUGGCAAAGUGGCUGUGGCUAGACUGCCUCUCUGGAUUCCUCGUCACUCAGCAGGGCAUCUCUGAGAGAAAUGCC [A24U U29A] | 1.12 |
